Results from patent publication US20210115144A1 (Dana-Farber, published 2021).

T1: human HHLA2 expressed on transfected cells (300.19 mouse pre-B cells; CHO cells) (human, UniProt Q9UM44 23-414)
T1 construct: also called B7-H7; B7H7
T1 sequence: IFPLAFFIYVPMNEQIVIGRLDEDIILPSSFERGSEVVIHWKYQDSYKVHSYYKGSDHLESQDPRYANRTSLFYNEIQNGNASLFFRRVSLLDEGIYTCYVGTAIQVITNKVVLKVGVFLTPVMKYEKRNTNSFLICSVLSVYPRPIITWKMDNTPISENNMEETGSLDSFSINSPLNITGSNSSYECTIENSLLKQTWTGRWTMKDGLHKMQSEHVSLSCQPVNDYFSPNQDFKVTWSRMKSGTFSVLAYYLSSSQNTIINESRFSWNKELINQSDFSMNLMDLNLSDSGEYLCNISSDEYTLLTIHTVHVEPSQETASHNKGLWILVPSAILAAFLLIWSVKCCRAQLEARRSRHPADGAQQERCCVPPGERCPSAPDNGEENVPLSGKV

T2: human HHLA2-mIgG2a fusion protein (human; mouse, UniProt Q9UM44 23-344, limits assumed)
T2 construct: also called hHHLA2-mIgG2a; HHLA2-Fc
T2 sequence: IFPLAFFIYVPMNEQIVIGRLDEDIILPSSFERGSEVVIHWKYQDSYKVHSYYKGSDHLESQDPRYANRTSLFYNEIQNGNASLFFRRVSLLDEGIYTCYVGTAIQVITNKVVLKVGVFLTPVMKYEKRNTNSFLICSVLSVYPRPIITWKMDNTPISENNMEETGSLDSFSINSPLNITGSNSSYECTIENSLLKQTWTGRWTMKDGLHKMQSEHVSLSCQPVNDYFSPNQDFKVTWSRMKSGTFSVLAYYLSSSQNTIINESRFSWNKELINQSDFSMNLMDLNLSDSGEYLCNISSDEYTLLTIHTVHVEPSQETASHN


Experiments:
[1] = biological target: T1, human HHLA2 expressed on transfected …; test: flow cytometry, mAb titrated on HHLA2-transfected 300.19 pre-B cells, PE goat anti-mouse IgG
Protocol: (§1) HHLA2 mAb cell binding and receptor blockade experiments were then performed. […] HHLA2 mAb binding to transfected 300.19 cells was detected with PE-labeled goat anti-mouse IgG (H+L). For HHLA2 mAb blocking experiments different concentration of HHLA2 mAbs were pre-incubated with 4 ug/ml of HHLA2-mIgG2a at a 1:1 ratio for 30 minutes and added to either TMIGD2 or KIR3DL3 transfected 293T cells and incubated for 30 minutes at 4° C. HHLA2-mIgG2a binding to TMIGD2 or KIR3DL3 transfected 293T cells was detected with a PE labeled Fab2 goat anti-mIgG2a antibody. EC50 and IC50 analyses were conducted using Graph Pad Prism. It was shown that HHLA2 mAb clone 2C4 has desired properties of complete KIR3DL3 blockade and partial TMIGD2 blockade (Table 6).

[2] = biological target: T1, human HHLA2 expressed on transfected …; test: flow cytometry, mAb on HHLA2-transfected 300.19 mouse pre-B cells
[3] = biological target: T2, human HHLA2-mIgG2a fusion protein; test: flow cytometry, mAb pre-incubated with 4 ug/ml HHLA2-mIgG2a; blockade of its binding to KIR3DL3-transfected 293T cells
Protocol: as §1

[4] = biological target: T2, human HHLA2-mIgG2a fusion protein; test: flow cytometry, mAb pre-incubated with 4 ug/ml HHLA2-mIgG2a; blockade of its binding to TMIGD2-transfected 293T cells
Protocol: as §1

[5] = biological target: T2, human HHLA2-mIgG2a fusion protein; test: cell microarray, HHLA2-mIgG2a on fixed transfected HEK293 cells, AF647 anti-mouse IgG detection
Protocol: Human HHLA2-mIgG2a fusion protein was added to slides of fixed, transfected HEK293 cell slides at a 20 ug/ml concentration, and the protein was detected with an AF647 labeled anti-mouse IgG detection antibody. Two replicate slides were screened for each of the 13 slide sets. Fluorescent images were analyzed and quantitated (for transfection efficiency) using ImageQuant software (GE). A protein ‘hit’ was defined as duplicate spots showing a raised signal compared to background levels. This was achieved by visual inspection using the images gridded on the ImageQuant software.
Addition of the AF647 labeled anti-mouse IgG detection antibody alone in the absence of HHLA2-mIgG2a produced no signal. The selectivity of HHLA2 binding to KIR3DL3 was evaluated using a panel of 14 KIR receptors arrayed on slides.

[6] = biological target: T1, human HHLA2 expressed on transfected …; test: flow cytometry, mAb titrated on HHLA2-transfected 300.19 pre-B cells, PE goat anti-mouse IgG; remark: listed apart in the source
Protocol: (§2) Binding of different HHLA2 mAbs to human and cynomolgus monkey HHLA2 was also tested and EC50 binding analysis was conducted (FIGS. 13A and 13B). […] HHLA2 mAb binding to transfected 300.19 cells was detected with PE-labeled goat anti-mouse IgG (H+L). EC50 analysis was conducted using Graph Pad Prism.

[7] = biological target: T2, human HHLA2-mIgG2a fusion protein; test: flow cytometry, mAb pre-incubated with 4 ug/ml HHLA2-mIgG2a; blockade of its binding to TMIGD2-transfected 300.19 pre-B cells
Protocol: (§3) HHLA2 mAb binding to transfected 300.19 cells was detected with PE-labeled goat anti-mouse IgG (H+L). […] EC50 and IC50 analyses were conducted using Graph Pad Prism. It was shown that HHLA2 mAb clone 2C4 has desired properties of complete KIR3DL3 blockade and partial TMIGD2 blockade (Table 7).

[8] = biological target: T2, human HHLA2-mIgG2a fusion protein; test: flow cytometry, mAb pre-incubated with 4 ug/ml HHLA2-mIgG2a; blockade of its binding to KIR3DL3-transfected 300.19 pre-B cells
Protocol: as §3

[9] = biological target: T3, cynomolgus monkey HHLA2 expressed on transfected 300.19 pre-B cells (cynomolgus monkey); test: flow cytometry, mAb titrated on cynomolgus monkey HHLA2-transfected 300.19 pre-B cells
T3 construct: whole, on cells
Protocol: FIGS. 13A and 13B show HHLA2 mAb binding to human and cynomolgus monkey HHLA2. […] HHLA2 mAb binding to transfected 300.19 cells was detected with a PE-labeled goat anti-mouse IgG (H+L) by flow cytometry.
as §2

[10] = biological target: T1, human HHLA2 expressed on transfected …; test: flow cytometry, mAb titrated on human HHLA2-transfected 300.19 pre-B cells
Protocol: as §2

EC50 [1] [µg/mL] | EC50 [2] [µg/mL] | IC50 [3] [µg/mL] | IC50 [4] [µg/mL] | binding result [5] | Binder | also measured
22.5 | 22.5 | 7 | 11.7 | – | anti-HHLA2 monoclonal antibody 6D10 (antibody, IgG1, V domains shown, also called 6DI0; 499.5.6D10.11.11.7) VH: EVQLVETGGGLVQPKGSLKLSCAASGFTFNTNVMNWVRQAPGKGLEWVARIRTKTNNYATYYADSVKDRFTIFRDDSQSILYLQMNNLKTEDTAMYYCVGAMDYWGQGTSVTVSS VL: DIVLTQSPASLAVSLGQRATISCRASESVDNYGISFMHWYQQKPGQPPKLLIYRASNLKSGIPARFSGSGSRTDFTLTINPVETGDVATYYCQQSSKDPPTFGTGTKLELK | –
0.44 | 0.44 | 0.68 | 0.56 | – | anti-HHLA2 monoclonal antibody 4D1 (antibody, IgG1, V domains shown, also called 499.5.4D1.5.16; MHC2563) VH: QVQLQQSGAELVRPGVSVKISCKGSGYTFTDYAMHWVKQSHAKSLEWIGSISTYYGDTNYNQKFKGKATMTVDKSSSTAYMELARLTSEDSAIYYCARGNYDDWYFNVWGAGTTVTVSS VL: DIQMTQSPSSLSASLGERVSLTCRASQDISGYLSWLQQKPDGTIKRLIYSTSTLDSGVPKRFSGSRSGSDYSLTISSLESEDFADYYCLQYASSPYTFGGGAKLEIK | –
– | – | – | – | no binding (tested: 20 ug/ml) | KIR2DS1 (receptor, human, UniProt Q14954 22-304, looked up, whole, on cells) HEGVHRKPSLLAHPGRLVKSEETVILQCWSDVMFEHFLLHREGMFNDTLRLIGEHHDGVSKANFSISRMKQDLAGTYRCYGSVTHSPYQLSAPSDPLDIVIIGLYEKPSLSAQPGPTVLAGENVTLSCSSRSSYDMYHLSREGEAHERRLPAGTKVNGTFQANFPLGPATHGGTYRCFGSFRDSPYEWSKSSDPLLVSVTGNPSNSWPSPTEPSSETGNPRHLHVLIGTSVVKIPFTILLFFLLHRWCSDKKNAAVMDQEPAGNRTVNSEDSDEQDHQEVSYA | –
– | – | – | – | no binding (tested: 20 ug/ml) | KIR2DS5 (receptor, human, UniProt Q14953 22-304, looked up, whole, on cells) HEGFRRKPSLLAHPGPLVKSEETVILQCWSDVMFEHFLLHREGTFNHTLRLIGEHIDGVSKGNFSIGRMTQDLAGTYRCYGSVTHSPYQLSAPSDPLDIVITGLYEKPSLSAQPGPTVLAGESVTLSCSSRSSYDMYHLSREGEAHERRLPAGPKVNRTFQADFPLDPATHGGTYRCFGSFRDSPYEWSKSSDPLLVSVTGNSSNSWPSPTEPSSETGNPRHLHVLIGTSVVKLPFTILLFFLLHRWCSNKKNASVMDQGPAGNRTVNREDSDEQDHQEVSYA | –
– | – | – | – | no binding (tested: 20 ug/ml) | KIR2DS3 (receptor, human, UniProt Q14952 22-304, looked up, whole, on cells) HEGFRRKPSLLAHPGRLVKSEETVILQCWSDVMFEHFLLHREGTFNDTLRLIGEHIDGVSKANFSIGRMRQDLAGTYRCYGSVPHSPYQFSAPSDPLDIVITGLYEKPSLSAQPGPTVLAGESVTLSCSSWSSYDMYHLSTEGEAHERRFSAGPKVNGTFQADFPLGPATQGGTYRCFGSFHDSPYEWSKSSDPLLVSVTGNPSNSWPSPTEPSSKTGNPRHLHVLIGTSVVKLPFTILLFFLLHRWCSDKKNASVMDQGPAGNRTVNREDSDEQDHQEVSYA | –
0.21 | 0.21 | 0.53 | 0.85 | – | anti-HHLA2 monoclonal antibody 2G2 (antibody, IgG1, V domains shown, also called 499.5.2G2.13.3.10; MHC2561) VH: EVMLVESGGGLVKPGGSLKLSCAVSGLTFSSYAMSWVRQTPEKRLEWVATISSGGSHTYYPDSVKGRFIISRDNAKNTLYLQMNSLRSEDTAMYYCTRLGRAFDYWGQGTTLTVSS VL: DIVMTQSHKFMSTSVGDRVSITCKASQDVSTAVAWYQQKPGQSPKVLIYWASTRHTGVPDRFTGSGSGTDFTLTISSVQAEDLALYYCQQDYSTPWTFGGGTKLEIK | –
0.24 | 0.24 | 0.52 | 28.2 | – | anti-HHLA2 monoclonal antibody 2C4 (antibody, IgG1, V domains shown, also called 499.5.2C4.E6.6.8.1; MHC2562) VH: EVHLQQSGPELEKPGVSVKISCKASGFSFTDYNMNWVKQSSGKSLEWIGNIDPYYGRINYNQKFKGKATLSVDKSSSTAYMHLKSLTSEDSAVYYCATGAYTSGYSWFAYWGQGTLVTVSA VL: ENVLTQSPGIMAASLGEKVTMTCSASSSVSSSYLHWYQQRSGASPKPLIHRTSNLASGVPARFSGSGSGTSYSLTISSVEAEDDATYYCQQWSGYPFTFGSGTKLEIK | EC50 [6]: 0.29 µg/mL; IC50 [7]: 7.3 µg/mL; IC50 [8]: 0.97 µg/mL; EC50 [9]: 0.47 µg/mL; EC50 [10]: 0.29 µg/mL
– | – | – | – | no binding (tested: 20 ug/ml) | KIR2DL3 (receptor, human, UniProt P43628 22-341, looked up, whole, on cells) HEGVHRKPSLLAHPGPLVKSEETVILQCWSDVRFQHFLLHREGKFKDTLHLIGEHHDGVSKANFSIGPMMQDLAGTYRCYGSVTHSPYQLSAPSDPLDIVITGLYEKPSLSAQPGPTVLAGESVTLSCSSRSSYDMYHLSREGEAHERRFSAGPKVNGTFQADFPLGPATHGGTYRCFGSFRDSPYEWSNSSDPLLVSVTGNPSNSWPSPTEPSSETGNPRHLHVLIGTSVVIILFILLLFFLLHRWCCNKKNAVVMDQEPAGNRTVNREDSDEQDPQEVTYAQLNHCVFTQRKITRPSQRPKTPPTDIIVYTELPNAEP | –
– | – | – | – | no binding (tested: 20 ug/ml) | KIR2DS2 (receptor, human, UniProt P43631 22-304, looked up, whole, on cells) HEGVHRKPSLLAHPGPLVKSEETVILQCWSDVRFEHFLLHREGKYKDTLHLIGEHHDGVSKANFSIGPMMQDLAGTYRCYGSVTHSPYQLSAPSDPLDIVITGLYEKPSLSAQPGPTVLAGESVTLSCSSRSSYDMYHLSREGEAHERRFSAGPKVNGTFQADFPLGPATHGGTYRCFGSFRDSPYEWSNSSDPLLVSVTGNPSNSWPSPTEPSSKTGNPRHLHVLIGTSVVKIPFTILLFFLLHRWCSNKKNAAVMDQEPAGNRTVNSEDSDEQDHQEVSYA | –
0.63 | 0.63 | 1.15 | 1.65 | – | anti-HHLA2 monoclonal antibody 1C8 (antibody, IgG2a, V domains shown, also called 499.5.1C8.9.12.2; MHC2564) VH: EVQLQQSGAELVQPGASVKLSCTASGFNIKDTYMHWVKQRPEQGLEWIGRIDPANGKTIFDPKFQVKATITADTSSNTVYLHLSSLTSEDTAIYYCAWLLPYYFDYWGQGTTLTVSS VL: EIVLTQSPAVMAASPGEKVTITCSVSSSISSSNLHWYQQKSGTSPKLWIYGTSNLASGVPVRFSGSGSGTSYSLTISSMEAEDAATYYCQKWSHYPLTFGAGTKLELK | –
